According to patent US9274110B2, “Diagnosis method of active tuberculosis” (priority 2011, dated 2016):

Assays:
[1] = Activity of rLipC or cutinase on p-nitrophenyl esters (release of p-NP at 410 nm); assay type: biochemical; conditions: for Specific Activity, pNP-butyrate (C4): substrate pNP-butyrate (C4); for Specific Activity, pNP-butyrate (C4) / Specific Activity, pNP-caprate (C10) / Specific Activity, pNP-caprylate (C8) / Specific Activity, pNP-laurate (C12) / Specific Activity, pNP-myristate (C14) / Specific Activity, pNP-valerate (C5): 1 mM, Tris buffer pH 8.0, 300 mM NaCl, 4 mM NaTDC, 15 min; for Specific Activity, pNP-caprate (C10): substrate pNP-caprate (C10); for Specific Activity, pNP-caprylate (C8): substrate pNP-caprylate (C8); for Specific Activity, pNP-laurate (C12): substrate pNP-laurate (C12); for Specific Activity, pNP-myristate (C14): substrate pNP-myristate (C14); for Specific Activity, pNP-valerate (C5): substrate pNP-valerate (C5)
[2] = pH-stat, fluorescent and spectrophotometric assays for lipase or phospholipase activity on various lipids; assay type: biochemical
From the text: rLipC activity was also investigated using pH-stat, fluorescent and spectrophotometric assays for various lipids, as well as phospholipids, to detect lipase or phospholipase activity, respectively.

In the case of “Cutinase F. solani: cutinase from F. solani, comparison enzyme [reference compound]”, the “Specific Activity, pNP-butyrate (C4)” value [1] is reported as 382 ± 22 U · mg^−1, the “Specific Activity, pNP-caprate (C10)” value [1] is reported as 9 ± 1 U · mg^−1 and the “Specific Activity, pNP-caprylate (C8)” value [1] is reported as 14 ± 3 U · mg^−1. For the same molecule, the “Specific Activity, pNP-laurate (C12)” value [1] was 1 ± 0.4 U · mg^−1, the “Specific Activity, pNP-myristate (C14)” value [1] was 1 ± 0.2 U · mg^−1 and the “Specific Activity, pNP-valerate (C5)” value [1] was 78 ± 0.5 U · mg^−1.

B1: Rv0220: M. tuberculosis Lip family protein Rv0220 (LipC), recombinant; shown not to be a lipolytic enzyme (protein, UniProt P96402 1-403, looked up)
Esterase LipC: MNQRRAAGSTGVAYIRWLLRARPADYMLALSVAGGSLPVVGKHLKPLGGVTAIGVWGARHASDFLSATAKDLLTPGINEVRRRDRASTQEVSVAALRGIVSPDDLAVEWPAPERTPPVCGALRHRRYVHRRRVLYGDDPAQLLDVWRRKDMPTKPAPVLIFVPGGAWVHGSRAIQGYAVLSRLAAQGWVCLSIDYRVAPHHRWPRHILDVKTAIAWARANVDKFGGDRNFIAVAGCSAGGHLSALAGLTANDPQYQAELPEGSDTSVDAVVGIYGRYDWEDRSTPERARFVDFLERVVVQRTIDRHPEVFRDASPIQRVTRNAPPFLVIHGSRDCVIPVEQARSFVERLRAVSRSQVGYLELPGAGHGFDLLDGARTGPTAHAIALFLNQVHRSRAQFAKEVI
For B1, the “Specific Activity, pNP-butyrate (C4)” value [1] was 133 × 10^−3 U · mg^−1, the “Specific Activity, pNP-caprate (C10)” value [1] was 2 × 10^−3 U · mg^−1 and the “Specific Activity, pNP-caprylate (C8)” value [1] was 22 × 10^−3 U · mg^−1. The “Specific Activity, pNP-laurate (C12)” value [1] was 0 U · mg^−1, the “Specific Activity, pNP-myristate (C14)” value [1] was 0 U · mg^−1 and the “Specific Activity, pNP-valerate (C5)” value [1] was 111 × 10^−3 U · mg^−1. For the same molecule, the “Hydrolysis of esters function associated with a fatty acyl chain having more than 10 carbons” value ([1]; summary of Table 1) was “not able to hydrolyse”, the “Long-chain triglycerides (TG) hydrolysis” value ([2]; cloned and characterized protein, see example 1) was “no long-chain triglycerides (TG) hydrolysis was detected” and the “Activity on triglycerides, diglycerides or monoglycerides as substrate” value ([2]; pH-stat, fluorescent and spectrophotometric assays, whatever the carbon chain length) was “does not show any activity”.
